Measured values published in US20210388087A1 (Chugai, published 2021).

T1: Human CD3eg linker (human)
T1 construct: single-chain construct; also called recombinant human CD3
T1 chain: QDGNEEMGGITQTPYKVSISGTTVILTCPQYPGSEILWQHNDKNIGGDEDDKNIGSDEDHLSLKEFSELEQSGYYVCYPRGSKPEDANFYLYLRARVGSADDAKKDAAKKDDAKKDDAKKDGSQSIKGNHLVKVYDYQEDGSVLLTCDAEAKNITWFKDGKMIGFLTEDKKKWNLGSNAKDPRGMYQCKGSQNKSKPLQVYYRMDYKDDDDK

B1: dBBDu183H A100fQ/dBBDu072L (antibody, name in Kabat numbering, V domains shown)
VH: QVQLVESGGGLVQPGRSLRLSCAASGFTFSNAWMHWVRQAPGKGLEWVAQIKDKGNAYAAYYAPSVKGRFTISRDDSKNSIYLQMNSLKTEDTAVYYCHYVHYASASTVLPQFGVDAWGQGTTVTVSS
VL: DIVMTQSPLSLPVTPGEPASISCQASQELVHMNRNTYLHWYQQKPGQAPRLLIYKVSNRFPGVPDRFSGSGSGTDFTLKISRVEAEDVGVYYCAQGTSVPFTFGQGTKLEIK
B2: dBBDu183H A102Q/dBBDu072L (antibody, name in Kabat numbering, V domains shown)
VH: QVQLVESGGGLVQPGRSLRLSCAASGFTFSNAWMHWVRQAPGKGLEWVAQIKDKGNAYAAYYAPSVKGRFTISRDDSKNSIYLQMNSLKTEDTAVYYCHYVHYASASTVLPAFGVDQWGQGTTVTVSS
VL: DIVMTQSPLSLPVTPGEPASISCQASQELVHMNRNTYLHWYQQKPGQAPRLLIYKVSNRFPGVPDRFSGSGSGTDFTLKISRVEAEDVGVYYCAQGTSVPFTFGQGTKLEIK
B3: dBBDu183H A102E/dBBDu072L (antibody, name in Kabat numbering, V domains shown)
VH: QVQLVESGGGLVQPGRSLRLSCAASGFTFSNAWMHWVRQAPGKGLEWVAQIKDKGNAYAAYYAPSVKGRFTISRDDSKNSIYLQMNSLKTEDTAVYYCHYVHYASASTVLPAFGVDEWGQGTTVTVSS
VL: DIVMTQSPLSLPVTPGEPASISCQASQELVHMNRNTYLHWYQQKPGQAPRLLIYKVSNRFPGVPDRFSGSGSGTDFTLKISRVEAEDVGVYYCAQGTSVPFTFGQGTKLEIK
B4: dBBDu183H A102S/dBBDu072L (antibody, name in Kabat numbering, V domains shown)
VH: QVQLVESGGGLVQPGRSLRLSCAASGFTFSNAWMHWVRQAPGKGLEWVAQIKDKGNAYAAYYAPSVKGRFTISRDDSKNSIYLQMNSLKTEDTAVYYCHYVHYASASTVLPAFGVDSWGQGTTVTVSS
VL: DIVMTQSPLSLPVTPGEPASISCQASQELVHMNRNTYLHWYQQKPGQAPRLLIYKVSNRFPGVPDRFSGSGSGTDFTLKISRVEAEDVGVYYCAQGTSVPFTFGQGTKLEIK
B5: dBBDu183H A100fR/dBBDu072L (antibody, name in Kabat numbering, V domains shown)
VH: QVQLVESGGGLVQPGRSLRLSCAASGFTFSNAWMHWVRQAPGKGLEWVAQIKDKGNAYAAYYAPSVKGRFTISRDDSKNSIYLQMNSLKTEDTAVYYCHYVHYASASTVLPRFGVDAWGQGTTVTVSS
VL: DIVMTQSPLSLPVTPGEPASISCQASQELVHMNRNTYLHWYQQKPGQAPRLLIYKVSNRFPGVPDRFSGSGSGTDFTLKISRVEAEDVGVYYCAQGTSVPFTFGQGTKLEIK
B6: dBBDu183H A102R/dBBDu072L (antibody, name in Kabat numbering, V domains shown)
VH: QVQLVESGGGLVQPGRSLRLSCAASGFTFSNAWMHWVRQAPGKGLEWVAQIKDKGNAYAAYYAPSVKGRFTISRDDSKNSIYLQMNSLKTEDTAVYYCHYVHYASASTVLPAFGVDRWGQGTTVTVSS
VL: DIVMTQSPLSLPVTPGEPASISCQASQELVHMNRNTYLHWYQQKPGQAPRLLIYKVSNRFPGVPDRFSGSGSGTDFTLKISRVEAEDVGVYYCAQGTSVPFTFGQGTKLEIK
B7: dBBDu183H A100fY/dBBDu072L (antibody, name in Kabat numbering, V domains shown)
VH: QVQLVESGGGLVQPGRSLRLSCAASGFTFSNAWMHWVRQAPGKGLEWVAQIKDKGNAYAAYYAPSVKGRFTISRDDSKNSIYLQMNSLKTEDTAVYYCHYVHYASASTVLPYFGVDAWGQGTTVTVSS
VL: DIVMTQSPLSLPVTPGEPASISCQASQELVHMNRNTYLHWYQQKPGQAPRLLIYKVSNRFPGVPDRFSGSGSGTDFTLKISRVEAEDVGVYYCAQGTSVPFTFGQGTKLEIK
B8: dBBDu183H A102F/dBBDu072L (antibody, name in Kabat numbering, V domains shown)
VH: QVQLVESGGGLVQPGRSLRLSCAASGFTFSNAWMHWVRQAPGKGLEWVAQIKDKGNAYAAYYAPSVKGRFTISRDDSKNSIYLQMNSLKTEDTAVYYCHYVHYASASTVLPAFGVDFWGQGTTVTVSS
VL: DIVMTQSPLSLPVTPGEPASISCQASQELVHMNRNTYLHWYQQKPGQAPRLLIYKVSNRFPGVPDRFSGSGSGTDFTLKISRVEAEDVGVYYCAQGTSVPFTFGQGTKLEIK
B9: dBBDu183H A100fS/dBBDu072L (antibody, name in Kabat numbering, V domains shown)
VH: QVQLVESGGGLVQPGRSLRLSCAASGFTFSNAWMHWVRQAPGKGLEWVAQIKDKGNAYAAYYAPSVKGRFTISRDDSKNSIYLQMNSLKTEDTAVYYCHYVHYASASTVLPSFGVDAWGQGTTVTVSS
VL: DIVMTQSPLSLPVTPGEPASISCQASQELVHMNRNTYLHWYQQKPGQAPRLLIYKVSNRFPGVPDRFSGSGSGTDFTLKISRVEAEDVGVYYCAQGTSVPFTFGQGTKLEIK
B10: dBBDu183H A102K/dBBDu072L (antibody, name in Kabat numbering, V domains shown)
VH: QVQLVESGGGLVQPGRSLRLSCAASGFTFSNAWMHWVRQAPGKGLEWVAQIKDKGNAYAAYYAPSVKGRFTISRDDSKNSIYLQMNSLKTEDTAVYYCHYVHYASASTVLPAFGVDKWGQGTTVTVSS
VL: DIVMTQSPLSLPVTPGEPASISCQASQELVHMNRNTYLHWYQQKPGQAPRLLIYKVSNRFPGVPDRFSGSGSGTDFTLKISRVEAEDVGVYYCAQGTSVPFTFGQGTKLEIK
B11: dBBDu183H A102W/dBBDu072L (antibody, name in Kabat numbering, V domains shown)
VH: QVQLVESGGGLVQPGRSLRLSCAASGFTFSNAWMHWVRQAPGKGLEWVAQIKDKGNAYAAYYAPSVKGRFTISRDDSKNSIYLQMNSLKTEDTAVYYCHYVHYASASTVLPAFGVDWWGQGTTVTVSS
VL: DIVMTQSPLSLPVTPGEPASISCQASQELVHMNRNTYLHWYQQKPGQAPRLLIYKVSNRFPGVPDRFSGSGSGTDFTLKISRVEAEDVGVYYCAQGTSVPFTFGQGTKLEIK
B12: dBBDu183H A102D/dBBDu072L (antibody, name in Kabat numbering, V domains shown)
VH: QVQLVESGGGLVQPGRSLRLSCAASGFTFSNAWMHWVRQAPGKGLEWVAQIKDKGNAYAAYYAPSVKGRFTISRDDSKNSIYLQMNSLKTEDTAVYYCHYVHYASASTVLPAFGVDDWGQGTTVTVSS
VL: DIVMTQSPLSLPVTPGEPASISCQASQELVHMNRNTYLHWYQQKPGQAPRLLIYKVSNRFPGVPDRFSGSGSGTDFTLKISRVEAEDVGVYYCAQGTSVPFTFGQGTKLEIK
B13: dBBDu183H A102G/dBBDu072L (antibody, name in Kabat numbering, V domains shown)
VH: QVQLVESGGGLVQPGRSLRLSCAASGFTFSNAWMHWVRQAPGKGLEWVAQIKDKGNAYAAYYAPSVKGRFTISRDDSKNSIYLQMNSLKTEDTAVYYCHYVHYASASTVLPAFGVDGWGQGTTVTVSS
VL: DIVMTQSPLSLPVTPGEPASISCQASQELVHMNRNTYLHWYQQKPGQAPRLLIYKVSNRFPGVPDRFSGSGSGTDFTLKISRVEAEDVGVYYCAQGTSVPFTFGQGTKLEIK
B14: dBBDu183H A100fT/dBBDu072L (antibody, name in Kabat numbering, V domains shown)
VH: QVQLVESGGGLVQPGRSLRLSCAASGFTFSNAWMHWVRQAPGKGLEWVAQIKDKGNAYAAYYAPSVKGRFTISRDDSKNSIYLQMNSLKTEDTAVYYCHYVHYASASTVLPTFGVDAWGQGTTVTVSS
VL: DIVMTQSPLSLPVTPGEPASISCQASQELVHMNRNTYLHWYQQKPGQAPRLLIYKVSNRFPGVPDRFSGSGSGTDFTLKISRVEAEDVGVYYCAQGTSVPFTFGQGTKLEIK
B15: dBBDu183H A102V/dBBDu072L (antibody, name in Kabat numbering, V domains shown)
VH: QVQLVESGGGLVQPGRSLRLSCAASGFTFSNAWMHWVRQAPGKGLEWVAQIKDKGNAYAAYYAPSVKGRFTISRDDSKNSIYLQMNSLKTEDTAVYYCHYVHYASASTVLPAFGVDVWGQGTTVTVSS
VL: DIVMTQSPLSLPVTPGEPASISCQASQELVHMNRNTYLHWYQQKPGQAPRLLIYKVSNRFPGVPDRFSGSGSGTDFTLKISRVEAEDVGVYYCAQGTSVPFTFGQGTKLEIK
B16: dBBDu183H A102H/dBBDu072L (antibody, name in Kabat numbering, V domains shown)
VH: QVQLVESGGGLVQPGRSLRLSCAASGFTFSNAWMHWVRQAPGKGLEWVAQIKDKGNAYAAYYAPSVKGRFTISRDDSKNSIYLQMNSLKTEDTAVYYCHYVHYASASTVLPAFGVDHWGQGTTVTVSS
VL: DIVMTQSPLSLPVTPGEPASISCQASQELVHMNRNTYLHWYQQKPGQAPRLLIYKVSNRFPGVPDRFSGSGSGTDFTLKISRVEAEDVGVYYCAQGTSVPFTFGQGTKLEIK
B17: dBBDu183H A100fW/dBBDu072L (antibody, name in Kabat numbering, V domains shown)
VH: QVQLVESGGGLVQPGRSLRLSCAASGFTFSNAWMHWVRQAPGKGLEWVAQIKDKGNAYAAYYAPSVKGRFTISRDDSKNSIYLQMNSLKTEDTAVYYCHYVHYASASTVLPWFGVDAWGQGTTVTVSS
VL: DIVMTQSPLSLPVTPGEPASISCQASQELVHMNRNTYLHWYQQKPGQAPRLLIYKVSNRFPGVPDRFSGSGSGTDFTLKISRVEAEDVGVYYCAQGTSVPFTFGQGTKLEIK
B18: dBBDu183H A100fV/dBBDu072L (antibody, name in Kabat numbering, V domains shown)
VH: QVQLVESGGGLVQPGRSLRLSCAASGFTFSNAWMHWVRQAPGKGLEWVAQIKDKGNAYAAYYAPSVKGRFTISRDDSKNSIYLQMNSLKTEDTAVYYCHYVHYASASTVLPVFGVDAWGQGTTVTVSS
VL: DIVMTQSPLSLPVTPGEPASISCQASQELVHMNRNTYLHWYQQKPGQAPRLLIYKVSNRFPGVPDRFSGSGSGTDFTLKISRVEAEDVGVYYCAQGTSVPFTFGQGTKLEIK
B19: dBBDu183H A102N/dBBDu072L (antibody, name in Kabat numbering, V domains shown)
VH: QVQLVESGGGLVQPGRSLRLSCAASGFTFSNAWMHWVRQAPGKGLEWVAQIKDKGNAYAAYYAPSVKGRFTISRDDSKNSIYLQMNSLKTEDTAVYYCHYVHYASASTVLPAFGVDNWGQGTTVTVSS
VL: DIVMTQSPLSLPVTPGEPASISCQASQELVHMNRNTYLHWYQQKPGQAPRLLIYKVSNRFPGVPDRFSGSGSGTDFTLKISRVEAEDVGVYYCAQGTSVPFTFGQGTKLEIK
B20: dBBDu183H A102T/dBBDu072L (antibody, name in Kabat numbering, V domains shown)
VH: QVQLVESGGGLVQPGRSLRLSCAASGFTFSNAWMHWVRQAPGKGLEWVAQIKDKGNAYAAYYAPSVKGRFTISRDDSKNSIYLQMNSLKTEDTAVYYCHYVHYASASTVLPAFGVDTWGQGTTVTVSS
VL: DIVMTQSPLSLPVTPGEPASISCQASQELVHMNRNTYLHWYQQKPGQAPRLLIYKVSNRFPGVPDRFSGSGSGTDFTLKISRVEAEDVGVYYCAQGTSVPFTFGQGTKLEIK

Target: T1, Human CD3eg linker
Assay: SPR, vs unmutated H183/L072
For B1, the “fold change of affinity” value was 1.2 fold. With B2 the “fold change of affinity” value was 1.3 fold. B3 was tested, and the “fold change of affinity” value was 1.1 fold. B4 was tested, and the “fold change of affinity” value was 1.9 fold. With B5 the “fold change of affinity” value was 1.6 fold. For B6, the “fold change of affinity” value was 1 fold. For B7, the “fold change of affinity” value was 1.5 fold. B8 was tested, and the “fold change of affinity” value was 2 fold. With B9 the “fold change of affinity” value was 1.7 fold. B10 was tested, and the “fold change of affinity” value was 1.5 fold. With B11 the “fold change of affinity” value was 3.3 fold. In the case of B12, the “fold change of affinity” value is reported as 1.3 fold. B13 was tested, and the “fold change of affinity” value was 1 fold. B14 was tested, and the “fold change of affinity” value was 1.6 fold. For B15, the “fold change of affinity” value was 1 fold. For B16, the “fold change of affinity” value was 3.6 fold. In the case of B17, the “fold change of affinity” value is reported as 0.7 fold. In the case of B18, the “fold change of affinity” value is reported as 1 fold. B19 was tested, and the “fold change of affinity” value was 1.5 fold. B20 was tested, and the “fold change of affinity” value was 0.5 fold.
